The values below come from PMC10499821 (2023).

Where no end group is shown, it is not given here. The star is where a group is joined. FITC = O=C1OC2(c3ccc(O)cc3Oc3cc(O)ccc32)c2ccc(NC(=S)*)cc21

Sequences and labels used below:
B1: Nsp9 (natural protein)
chain: NNELSPVALRQMSCAAGTTQTACTDDNALAYYNTTKGGRFVLALLSDLQDLKWARFPKSDGTGTIYTELEPPCRFVTDTPKGPKVKYLYFIKGLNNLNRGMVLGSLAATVRLQ

Experiment [1] concerns the target Nsp9.
Another experiment deals with Nsp3 Ubl1 (SARS-CoV-2, UniProt P0DTD1 819-2763). Description: FP.
Experiment [2] has as its target B1. Description: FP.
The next experiment deals with Nsp3 ADRP (SARS-CoV-2, UniProt P0DTD1 819-2763). The experiment is described as follows: FP.
The target of the next experiment is Nsp3 SUD-M (SARS-CoV-2, UniProt P0DTD1 819-2763). The experiment is described as follows: FP.
For a further experiment, the target named is MCM9 796-811. Description: FP.
The target of a further experiment is MVB12A 166-180. The experiment is described as follows: FP.
For the next experiment, the target named is RIF1 1780-1795. Description: FP.
The next experiment concerns the target NEK9 737-751. The experiment is described as follows: FP.

In general, Kd refers to the free concentration of one partner at which half of the binding sites on the other are occupied at equilibrium, for simple one-to-one binding. A higher Kd goes with weaker binding. In the experiment with Nsp9 [1], NPYSEGQFLDEHHSVN [RIF1 1780-1795] registered a Kd of 88 µM. This counts as double-digit micromolar.
Molecule DAALALLLLDRLNQLE [N_(216–231) peptide] gave a Kd in the experiment with Nsp3 Ubl1 of 64 µM.
AEGIDIGEMPSYDLVL [NKRF_(8–23)]: the affinity with Nsp9 [2], expressed as Kd, was 50 µM.
In the case of GSTYLHPLSELLGIPL [MBOAT1_(16–31)], the Kd with Nsp3 ADRP is 104 µM.
Consider {FITC}-AVWTQEHDAILEHFAQ [FITC-DNAH2 92-107], for which, in the experiment with Nsp8, the equilibrium dissociation constant (Kd) was ~190 µM.
In the experiment with Nsp3 SUD-M, FTEEDLHFVLYGVTPS [PRDM14_(197–213)] came in with a Kd of 37 µM.
{FITC}-PGHSPADYLRFQDLVL [FITC-DYRK1B 394-409] displayed a dissociation constant (Kd) with Nsp16 of 3.2 µM. In other words, the single-digit micromolar range.
Take SSGLSIGTVFQSSSPY [NEK9 737-751]: in the experiment with Nsp9 [1], the affinity, expressed as Kd, was 111 µM.
Same read-out and setting: for YPAHPDGFALGRAPLA [LMTK3 22-36] the value was 34 µM.
Take CPSLSEEILRCLSLHD [NYNRIN_(1031–1046)]: in the experiment with Nsp3 Ubl1, the Kd came to 150 µM.
As to DIGLLPSPGETGVPWR [MCM9 796-811], the Kd with Nsp9 [1] was ~3200 µM.
With SDEGALLDQLYLALRN [NCOA2_(1074–1089)], the equilibrium dissociation constant (Kd) in the experiment with Nsp3 Ubl1 amounted to 26 µM. In other words, the double-digit micromolar range.
Consider MNIQEQGFPLDLGASY [AXIN1 1-15], for which the dissociation constant Kd in the experiment with Nsp9 [1] turned out to be 49 µM. This lies in the double-digit micromolar range.
Turning to MNIQEQGFPLDLGAS [AXIN1_(1–15)], the affinity with Nsp9 [2], expressed as Kd, was 49 µM.
In the case of B1, the Kd was ~3200 µM with MCM9 796-811, 450 µM with MVB12A 166-180, 88 µM in the experiment with RIF1 1780-1795 and 111 µM with NEK9 737-751.
For the molecule MQGLSLDAASQPSKGY [MVB12A 166-180], the dissociation constant Kd with Nsp9 [1] was determined as 450 µM.
Same read-out and setting: for FQGAWLGCPEPWEPLL [NOTCH4 1605-1620] the value was 125 µM.
On to PAHPDGFALGRAPLA [LMTK3_(22–36)], for which binding in the experiment with Nsp9 [2] was characterised by a dissociation constant (Kd) of 34 µM.
